By Ki is commonly meant the equilibrium dissociation constant of an inhibitor or competing ligand from its target.

Consider 3 molecules from paper PMC4819454 (ACS Central Science, 2016).

Like-named read-outs stand apart in the source and are kept apart here.

The target of one series is HPA. The conditions noted are these: read-out: Ki against HPA, cited from earlier work.
The target of series [1] is porcine pancreatic α-amylase (porcine) (UniProt P00690). In words: enzyme inhibition kinetics.
Series [2] deals with human pancreatic α-amylase (human) (UniProt P04746). In words: enzyme inhibition kinetics.
The conditions of series [3]: cited from earlier work.
The conditions of series [4]: cited from earlier work. The source holds these as a separate data set.

Chain of UniProt P04746 (P04746 16-511): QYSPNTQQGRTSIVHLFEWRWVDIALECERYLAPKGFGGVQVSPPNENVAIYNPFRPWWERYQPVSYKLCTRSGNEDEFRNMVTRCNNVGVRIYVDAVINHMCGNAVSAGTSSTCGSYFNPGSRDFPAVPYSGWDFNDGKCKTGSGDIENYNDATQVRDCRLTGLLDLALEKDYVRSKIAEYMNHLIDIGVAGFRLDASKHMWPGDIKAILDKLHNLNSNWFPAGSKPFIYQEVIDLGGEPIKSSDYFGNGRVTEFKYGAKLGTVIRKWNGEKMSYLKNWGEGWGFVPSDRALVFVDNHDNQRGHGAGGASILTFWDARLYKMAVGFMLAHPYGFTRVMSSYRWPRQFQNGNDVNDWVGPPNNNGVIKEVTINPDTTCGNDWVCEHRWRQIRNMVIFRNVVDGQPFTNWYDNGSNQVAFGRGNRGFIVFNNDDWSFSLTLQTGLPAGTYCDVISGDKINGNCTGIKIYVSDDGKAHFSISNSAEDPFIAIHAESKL
Chain of UniProt P00690 (P00690 16-511): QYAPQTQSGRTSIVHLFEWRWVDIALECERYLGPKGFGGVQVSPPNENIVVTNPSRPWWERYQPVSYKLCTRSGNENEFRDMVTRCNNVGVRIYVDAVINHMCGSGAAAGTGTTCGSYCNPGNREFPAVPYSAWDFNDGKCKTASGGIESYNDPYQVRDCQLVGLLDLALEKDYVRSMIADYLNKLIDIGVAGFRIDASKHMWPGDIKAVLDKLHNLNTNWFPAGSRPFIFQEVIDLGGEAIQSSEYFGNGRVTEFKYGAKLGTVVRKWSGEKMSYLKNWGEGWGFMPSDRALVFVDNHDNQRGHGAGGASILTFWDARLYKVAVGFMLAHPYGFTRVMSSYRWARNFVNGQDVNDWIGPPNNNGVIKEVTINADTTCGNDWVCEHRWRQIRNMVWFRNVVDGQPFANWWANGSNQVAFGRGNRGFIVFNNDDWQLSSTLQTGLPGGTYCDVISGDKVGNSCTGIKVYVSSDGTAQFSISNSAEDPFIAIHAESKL

On to Montbretin A [reference compound], for which the Ki at HPA was 8 nM.

Take recombinant helianthamide (peptide): the Ki in series [1] is 0.1 nM; in series [2] it was 0.01 nM.

B1: tendamistat: 74-residue peptide with two disulfide bonds from Streptomyces tendae (protein, UniProt P01092 31-104, looked up)
Alpha-amylase inhibitor …: DTTVSEPAPSCVTLYQSWRYSQADNGCAQTVTVKVVYEDDTEGLCYAVAPGQITTVGDGYIGSHGHARYLARCL
Consider B1, for which the Ki on HPA (estimated) was 0.009 to 0.2 nM. Besides, the immunogenicity result in series [3] (clinic) is given as “pronounced immunogenicity”. Also, in series [3] (clinical trials), the “blood plasma glucose levels” value is given as “significant decrease in blood plasma glucose levels”. Moreover, the vulnerability to degradation entry in series [4] was “vulnerability to degradation”.
